Source: patent US11407819B2, “Compositions and use of a fibrinogen binding motif present in EFB and COA for therapeutics and vaccines against Staphylococcus aureus” (priority 2013, dated 2022)
“Also recorded” adds a separate entry of the source.

T1: rEfb-N binding to Fg (Homo sapiens, UniProt P02671+P02675+P02679)
T1 construct: full-length human Fibrinogen (diluted in PBS, Enzyme research); purchased Enzyme research; host or cells: Efb probe made in E. coli
T1 sequence (P02671 20-629 limits assumed): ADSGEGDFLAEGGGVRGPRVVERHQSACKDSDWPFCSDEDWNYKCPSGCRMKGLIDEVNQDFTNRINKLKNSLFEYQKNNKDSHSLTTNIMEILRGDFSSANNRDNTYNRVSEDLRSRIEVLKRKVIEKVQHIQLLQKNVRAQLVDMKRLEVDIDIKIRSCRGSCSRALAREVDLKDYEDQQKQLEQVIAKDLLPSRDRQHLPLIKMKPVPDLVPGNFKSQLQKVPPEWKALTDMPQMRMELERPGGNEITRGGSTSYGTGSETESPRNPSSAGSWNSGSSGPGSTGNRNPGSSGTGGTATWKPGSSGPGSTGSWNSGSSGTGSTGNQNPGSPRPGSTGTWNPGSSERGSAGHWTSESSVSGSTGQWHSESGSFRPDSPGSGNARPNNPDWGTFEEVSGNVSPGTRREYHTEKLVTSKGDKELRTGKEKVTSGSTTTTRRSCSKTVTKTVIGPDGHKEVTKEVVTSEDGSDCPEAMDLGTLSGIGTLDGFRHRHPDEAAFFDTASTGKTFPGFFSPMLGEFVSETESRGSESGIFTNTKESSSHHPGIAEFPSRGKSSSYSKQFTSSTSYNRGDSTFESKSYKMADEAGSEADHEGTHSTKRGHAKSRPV
T1 sequence (P02675 31-491): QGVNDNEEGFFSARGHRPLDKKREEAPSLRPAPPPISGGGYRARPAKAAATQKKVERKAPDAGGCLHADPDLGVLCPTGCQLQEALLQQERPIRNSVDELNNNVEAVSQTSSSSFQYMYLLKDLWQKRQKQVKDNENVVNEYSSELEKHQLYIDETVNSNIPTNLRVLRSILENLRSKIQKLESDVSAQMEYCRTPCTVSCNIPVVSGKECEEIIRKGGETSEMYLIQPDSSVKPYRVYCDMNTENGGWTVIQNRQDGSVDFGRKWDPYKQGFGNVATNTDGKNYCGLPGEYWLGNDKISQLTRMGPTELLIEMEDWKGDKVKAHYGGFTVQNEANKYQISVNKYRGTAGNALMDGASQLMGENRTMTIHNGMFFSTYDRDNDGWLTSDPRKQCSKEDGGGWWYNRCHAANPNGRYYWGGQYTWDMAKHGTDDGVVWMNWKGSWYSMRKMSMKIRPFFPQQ
T1 sequence (P02679 27-453): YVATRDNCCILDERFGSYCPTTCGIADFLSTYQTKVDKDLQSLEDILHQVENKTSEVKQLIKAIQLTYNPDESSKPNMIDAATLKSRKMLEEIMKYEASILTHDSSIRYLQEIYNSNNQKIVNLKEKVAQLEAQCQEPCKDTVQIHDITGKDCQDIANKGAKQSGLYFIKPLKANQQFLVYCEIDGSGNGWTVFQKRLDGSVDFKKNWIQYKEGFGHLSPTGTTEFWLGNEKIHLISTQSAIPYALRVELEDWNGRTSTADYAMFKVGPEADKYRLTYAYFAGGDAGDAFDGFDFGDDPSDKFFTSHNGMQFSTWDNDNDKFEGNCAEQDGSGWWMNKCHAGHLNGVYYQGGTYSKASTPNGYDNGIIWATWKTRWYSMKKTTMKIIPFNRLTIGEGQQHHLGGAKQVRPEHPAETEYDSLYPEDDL


Assays:
rEfb-N binding to Fg = biological target: T1, rEfb-N binding to Fg; test: Competition ELISA, peptide inhibition of rEfb-N (Efb 30-104) binding to Fg; conditions: increasing concentration of peptides; 2 nM GST fusion protein
Description: Coa-F contains an Efb like fibrinogen binding motif. FIG. 11A is an image of a ClustalW alignment of amino acid sequence from Efb-O (Efb 68-98) and Coa from Newman strain (col-Newman). Sequence similarity was identified at Coa 474-505. Bold letters denote conserved residues and underlined letters represent similar residues. FIGS. 11B and 11C show a comparison of amino acid sequence of Efb-O with Coa 474-505 (FIG. 11B) and Coa 506-532 (FIG. 11C). Large letters in Efb-O indicate the residues important for Fg binding. The red letters show the identical residues and the yellow letters indicate the similar residues. […] Increasing concentration of Coa peptides was incubated with 2 nM GST fusion proteins in Fg-coated microtiter wells. Closed square, sCoa-O; closed circle, sCoa-RI; closed triangle, sEfb-O.
A peptide was synthesized that corresponds to the Coa-O sequence (sCoa-O) and determined its Fg binding activity in a competition ELISA. Microtiter wells were coated with Fg and binding of the recombinant N-terminal segment of Efb (rEfb-N), that harbors the two Fg binding sites, was quantitated in the presence of increasing concentration of different synthetic peptides.
In the case of peptide inhibition assay, various concentration of Efb or Coa peptides were mixed with a fixed concentration of Coa-GST or Efb-GST fusion proteins (5-10 nM) in TBS and the bound GST fusion proteins were detected through incubation with HRP-conjugated rabbit anti-GST polyclonal antibodies (5000× dilution). All proteins were diluted in TBS containing 1% BSA and 0.05% TWEEN® 20 and the ELISA assays were carried out at room temperature.

THP-1 cells = test: THP-1 cell adherence to immobilized Fg; format: cell-based
Experimental: Cell adherence assay using cell lines—A monocytic cell line THP-1 cell stably expressing αMβ2 was maintained in RPMI1640 supplemented with 10% fetal bovine serum, […] L-glutamine, 100 units/ml penicillin and 100 μg/ml streptomycin. Prior to use, cells were harvested by centrifuge, washed and suspended in RPMI 1640/1% human serum albumin. For cell adherence assays, 48-well plates were coated with 200 μl of Fibrinogen (10 μg/ml) overnight at 4° C. followed by 1 hour at 37° C. before blocking with 1% Polyvinylpyrrolidone (PVP 3600 kDa) for 45 minutes at 37° C. Subsequently, the cells were seeded 2×10^5/well in the presence or absence of Coa or Efb recombinant proteins or peptides and incubated at 37° C. for 25 minutes. Non-adherent cells were removed by washing gently three times with PBS/1% BSA. Adherent cells were quantitated with CyQuant kit according to the manufacturer's manual.

[1] = tested on: Coa-F, Coa-R0, Efb-N, Efb-O, Efb-A binding to Fg; test: Inhibition by FBE5 scFv-Fc of Coa and Efb fragment binding to immobilized human Fg; parameters: species or system Staphylococcus aureus; conditions: scFv-Fc 0.5, 5, 50 μg/ml; for inhibition of binding to Fg of all proteins tested: Coa-F, Coa-R0, Efb-N, Efb-O 10 nM, Efb-A 750 nM
Experimental: To assess the inhibitory activity of anti-Coa scFv-Fc antibodies, 0.5 μg/well of human Fg was immobilized at 4° C. overnight in 50 mM Carbonate Buffer, pH 9.6. Indicated amounts (50, 5, 0.5 μg/ml) of scFv-Fcs prepared in 2% BSA+1×TBS+0.05% TWEEN® 20 were pre-incubated for 1 hour with a constant concentration of Coa or Efb fragments also prepared in 2% BSA+1×TBS+0.05% TWEEN® 20 at room temperature, 250 rpm shaking. Specifically, Coa-F, Coa-R0, Efb-N and Efb-O were at a fixed concentration of 10 nM; whereas Efb-A was at 750 nM. Fg-binding activity of each protein alone was also checked (no mAb control—0 μg/ml). The Fg-coated plate was blocked with 2% BSA-TBST and washed with PBST. […] Residual bound Coa and Efb fragments were detected with HRP-conjugated (HorseRadish Peroxidase-conjugated) α-GST-tag antibody, except for Efb-N, where an HRP-conjugated α-HIS-tag was used (see FIG. 18). HRP-tagged antibodies were diluted in 2% BSA+1×TBS+0.05% TWEEN® 20 and used at 1:10000 dilution. […] HRP signal was developed using […]™ OPD tablets using manufacturer's guidelines. Binding of Coa and Efb fragments to Fg (no mAb control) was set to 100% and residual binding to Fg of Coa and Efb fragments in the presence of different concentrations of antibodies was calculated and represented.
To assess the inhibitory activity of anti-Coa scFv-Fc antibodies, 0.5 μg/well of human Fg was immobilized at 4° C. overnight in 50 mM Carbonate Buffer, pH 9.6. Indicated amounts (0, 0.5, 5, and 50 μg/ml) of scFv-Fcs were pre-incubated for 1 hour with a constant concentration of Coa or Efb fragments. Specifically, Coa-F, Coa-R0, Efb-N and Efb-O were at a fixed concentration of 10 nM; whereas Efb-A was at 750 nM. Fg-binding activity of each protein alone was also checked (no mAb control—0 μg/ml). The Fg-coated plate was blocked with 2% BSA-PBST and washed with PBST. The pre-incubated mixture of Coa/Efb and anti-Coa scFv-Fc was transferred on the Fg-coated plate. Residual bound Coa and Efb fragments were detected with HRP-conjugated (HorseRadish Peroxidase-conjugated) α-GST-tag antibody, except for Efb-N, where an HRP-conjugated α-HIS-tag was used. Binding of Coa and Efb fragments to Fg (no mAb control) was set to 100% and residual binding to Fg of Coa and Efb fragments in the presence of different concentrations of antibodies was calculated and represented.

Molecule	inhibition of rEfb-N binding to Fg (rEfb-N binding to Fg)	inhibition of THP-1 adherence to immobilized Fg (THP-1 cells; M1/70 20 μg/ml, rEfb 0.2 μM, rCoa 0.5 μM, peptides 0.5 μM each)	reversal of inhibition of THP-1 adherence elicited by rEfb or rCoa (THP-1 cells; peptide 50 μM preincubated with rEfb (0.2 μM) or rCoa (0.2 μM))	inhibition of CoaF, CoaRO and EfbA binding to Fg [1]	inhibition of EfbN and EfbO binding to Fg [1]	inhibition of binding to Fg of all proteins tested [1]
sCoa-O: synthetic peptide corresponding to Coa-O, residues Coa 474-505 (KYVKYRDAGTGIREYNDGTFGYEARPRFNKPS)	potent inhibitor; also recorded: effectively inhibited rEfb-N binding to Fg	did not inhibit THP-1 adherence	reverses the inhibitory activities	–	–	–
FBE5-A12: VH SEQ ID NO: 73, VL SEQ ID NO: 103 (antibody, V domains shown) VH: QVQLVESGGGVVQPGRSLRLSCAASGFTFSSYGMHWVRQAPGKGLEWVAVISYDGSNKYYADSVKGRFTISRDNSKNTLYLQMNSLRGEDTAVYYCAREGGWEPNGLDYWGQGTLVTVSS VL: QAVLTQPPSASGTPGQRVTISCSGSDFNVGTNYVNWYQQLPGSAPKLLIYRNNQRPSGVPDRFSGSKSGTSATLGITGLQTGDEADYYCGTWDSSLSAEVFGGGTKLTVL	–	–	–	clear inhibition	less efficient	dose dependent inhibition of all proteins tested
FBE5-F9: VH SEQ ID NO: 80, VL SEQ ID NO: 110 (antibody, V domains shown) VH: QMQLVQSGGGVVQPGRSLRLSCAASGFTFSSYGMHWVRQAPGKGLEWVAVISYDGSNKYYADSVKGRFTISRDNSKNTLYLQMNSLRAEDTAVYYCAKEGDGDYGGVLDYWGQGTLVTVSS VL: QSVLTQPPSVSAAPGQKVTISCSGSSSNIEKNYVSWYQQLPGTAPKLLIYDNNKRPSGIPDRFSGSKSGTSATLGITGLQTGDEADYYCGTWDSSLSAVVFGGGTKLTVL	–	–	–	clear inhibition	less efficient	dose dependent inhibition of all proteins tested
